Data on two substances can be found in PMC3271077.

What all share (test): SPR; Biacore 3000; HopZ1a proteins, GST or BSA immobilised on CM5 chips by amine coupling; 500 µg/ml (Figure S1A: 250 µg/ml) tubulin injected; 25°C, HBS-EP running buffer (0.01 M HEPES pH 7.4, 0.15 M NaCl, 3 mM EDTA, 0.005% Surfactant P20)
In general terms: Surface plasmon resonance follows binding to a sensor surface in real time, without labels.

The target in experiment [1] is GST-HopZ1a (Pseudomonas syringae pv. syringae A2) (UniProt Q6VE93).
Experiment [2] concerns the target HIS-HopZ1a (Pseudomonas syringae pv. syringae A2) (UniProt Q6VE93).
The target of experiment [3] is HIS-HopZ1a(C216A) (Pseudomonas syringae pv. syringae A2) (UniProt Q6VE93).
Experiment [4] deals with HIS-HopZ1a (Pseudomonas syringae pv. syringae A2) (UniProt Q6VE93). This is another data set of the same source.
Experiment [5] addresses HIS-HopZ1a(K289R) (Pseudomonas syringae pv. syringae A2) (UniProt Q6VE93).

Read-outs that look alike come from different tables or passages of the source.

“bovine brain tubulin heterodimers (from UniProt Q6B856 1-445) (complex)”: the RU difference in experiment [1] stood at 36 RU. Besides, in experiment [2], the RU difference turned out to be 1050 RU, the RU difference (250 µg/ml tubulin) worked out at 630 RU, the RU difference (6973 RU HIS-HopZ1a immobilised) stood at 59 RU and the RU difference (13598 RU HIS-HopZ1a immobilised) was 324 RU. In experiment [2], this substance came in with an RU difference (18289 RU HIS-HopZ1a immobilised) of 615 RU. In experiment [3], the RU difference turned out to be 1150 RU and the RU difference (250 µg/ml tubulin) came to 463 RU. Besides, the RU difference in experiment [4] stood at 117 RU. The substance further registered an RU difference in experiment [5] of 186 RU.
Take soybean tubulin (complex): the RU difference in experiment [1] worked out at 305 RU; in experiment [2], 1230 RU.
